According to patent publication US20060166191A1:

Biological target: wild-type Gag expressed from the full-length proviral construct pNL4-3 (HIV-1) (UniProt P12493)
Assay: cell-based or functional assay

Substance: AP3D-5′, AP3 δ subunit residues 1-742 (from UniProt O14617 1-742)
- cells with particle budding among 100 consecutive 293T cells (thin-section electron microscopy), NL4-3 with AP3D-5′: 0 cells of 100
